test: yeast display, Sf9 membrane polyspecificity reagent, FACS + sequencing; frameworks hold sequencing errors
Outline: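 Polyreactivity labels are assigned by the sorting gate from which each nanobody was recovered. The gates were low and high (top ~1%), set on anti-HA fluorescence for expression and streptavidin fluorescence for reagent binding. Before sorting, galactose-induced (36–48 hours) yeast display cells were stained for 1 hour at 4 °C with 10% biotinylated, detergent-solubilized Sf9 membrane reagent.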

| Sequence | polyreactivity (PSR sort gate) |
| --- | --- |
| QVQLVESGGGLVQAGGSLRLSCAASGSTFALNAMGWYRQAPGKERELVAAISGRGGSTYYADSVKGRFTISRDNAKNTVYLQMNSLKPEDTAVYYCAATSRVYVRGSYWKYGYWGQGTQVTVSS | high polyreactivity |
| QVQLVESGGGLVQAGGSLRLSCAASGITLYAYVMGWYRQAPGKERELVAAIRSGGSTYYADSVKGRFTISRDNAKNTVYLQKNSLKPEDTAVYYCAAYYPLWGWGYDYWGQGTQVTVSS | high polyreactivity |
| QVQLVESGGGLVQAGGSLRLSCAASGLIFVVYVMGWYRQAPGKERQLVAAMYGSGDSTYYADSVKGRFTISRDNAKNSVSLKMNSLKPEDTAVYSCAAKAFISDGYWYGYWGQGTQVTVSS | high polyreactivity |
| QVQLVESGAGLVQAGGSLRLSCAASGFIFNRYAMGWYRQAPGKERELVAAIRGSGGSTYADSVKGRFTISRDNAKNTVYLQMNSLKPEDTAVYYCNKERPRRNGQVARYDYWGQGTQVTVSS | low polyreactivity |
| QVQLVESGGCLVQGGGSLRLTWAASGRTFPYNNMRRYRQAPGKERELVASITYTDGSTSYADCVKGRFTISRDNAKNTVYLQMNSLKPQDTADYYCAAVYYAHQDYRFDYWGQGTQVTVSS | low polyreactivity |
| QVQLVESGGGLVQAGGSLRLSCAASGSTLWLYAMGWYRQAHGKERELVAVISNSGSTYYAESVKGRFTISRDNAKNTVYLQMNSLKPEDTAVYSCNKDGGGDSYWYDYWGQGTQVTVSS | low polyreactivity |
| QYQLVESGGCLVQAGGTLRLRCAATGFTFKSYAMGWYRHAHGKAWELVAAISNRGGSTYYADSVKGRFTISRDNAKNSVYLQINSLKPEDNAVYYCATQYYVRPFDYWGQGTQVTVSS | high polyreactivity |
| QVQLVESGGGLVQAGGSLRLSCAASGRIFALNVMGWYRQAPVKERELFAVINRSGNTNYADSVKGRFTSSRDNAKNTVYLQMNSLKPEDTAVYYCAARRVGYGTDRYYGYDSWGQGTQVTVSS | high polyreactivity |
| QVQLVESGGGLVQAGGSLRLSCAASGIIFANYAMGWYRQAPGKERELVAAITYSGGGTYYADSVKGRFTISRDNAKNTVYLQMNSLKPEDTAVYYSAAEYFYRWYYFPYGYWGQGTQVTVSS | high polyreactivity |
| QVQLVESGGGLVQAGGSLRLSCAASGSTFYVNTMGWYRQAPGKERELVATITASDGSTYADSVKGRFTISRDNAKNTVYLQMNSLKPDDTAVYYCNADTRTQGPYSAPYYREMNYWGQGTQVTVSS | low polyreactivity |
| QVQLVESGGVLVQAGGRLRLSCAASGLTFNENVMGWYRQAPGKERELVAAISTGASTYYADSVKGRFTISRDNAKNTVYLQMNSLKPEDTAVYYCAKRVNRWYGYWGQGTQVTVSS | high polyreactivity |
| QVQLVESGGGLVQAGGSLRLSCAASGSIFGYYAMGWYRQAPGKERELVASISGSGGTTYYADSVKGRFTISRDNAKNTVYLQMNSLKPEDTAVYYCAARRSIYGYPFVTSRRGYWGQGTQVTVSS | high polyreactivity |
| QFQLVESGGRLVQAGGSLRLSCAASGSIFYLNAIGSYRQAPGKERELVAAISRSGGRTYYADSVKGRFTISRDNAKNTVYLQMNSLIPEDTAVYYCAADVQAQGAYRGGYWGQGTQVTVSS | high polyreactivity |
| QVQLVESGGGLVQAGGSLRLSCAASGRTFRYNAMGWYRQAPGKERELVAAISGRGSSTYYSDSVKGRFTISRDNAKNTVYLQMNSLTPEDTAVYYCAALPASVRRPAWHDYWGQGTQVTVSS | high polyreactivity |
| QVQLQESGGGLEQAGGSLRLSCAASGYISDIGPMGWSRQAPGKEREFVATIVVGSTTNYADSVKGRFTISRDNAKNTVYLQPESGRFRGVLLRGWLLAVGKFTYWGQGTQETVSS | low polyreactivity |
| QVQLVESGGGLVQAGGSLRLSCAASGRIFNAYAMGWYRQAPGKERELVAAISRSGGRTYYADSVKGRFTISRDNAKNNVYLQMNILKPEDTAVYYCAKDFFEHSPVSHTYSSSKYDYWGQGTQVTVSS | low polyreactivity |
| QVQLVESGGGLVQAGGSLRLSCASSGRTFYRYAMGWYRQAPGKERELVASITRRGGSTYYADSVKGRFTISRDNAKNTVYLQMNSLKPEDTAVYYCAKHSWPLDGGDYWGQGTQVTVSS | low polyreactivity |
| KVKLVESGGGLVQAGGSLRLSCAASGITSWYYAMGWYRQAPGKERELVAAITSDGSTYYADSVKGRFTISRDNAKNTVYLQMNSLKPEVTAVYYCAAERDYWIPDSYLVGMDFWGLGTQVTVSS | low polyreactivity |
| QVQLVESGGGLVQAGGSLRLSCAASGSIFPWNAMGWYRKAHGKARELVAVISQNGGRTYYADSVKGSFTISRDKAKNTVYLQMNSLKPEDTAVYYCAARPRLPRQIGGDGHLDDYWGQGTQVTVSS | high polyreactivity |
| QVQLVESWGGLVQAGGTLRLSCAASGRILYLNAMGWNRQAPGKEREFVAAISKSGGSTYYADSVKGRFTISRDNAMNSVYLQMNSLKPEDTAVYYCATRYRSAEYDFWGQGTQVTVSS | low polyreactivity |
| QFQLVESGGGLVQAGGSLRLSCAASGSIFGYYDMGWYRQAPGKERELVAAISWSGDTTYYADSVKGRFTISRDNAKNTVDLQMNILTPEDTAVYYCSAEFYDWLGGMGYWGQGTQVNVSS | low polyreactivity |
| QVQLVESGGGLVQAGGSLRLSCAASGLTFGVYAMGWYRPAPGKERELVAAITATGGSTYYADSVKGRFTISRDNAKNTVYLQMNSLKPEDTAVYYCAKPDFYRMGYWGQGTQVTVSS | low polyreactivity |
| QVHLVESGGGLVQAGGSLRLSCAASGSNFRSYAMGWYRQAPWKERELDAAISSSGGRTYYADSVKGRFTISRDNAKNTVYLQMNSVKPEDNAVYYCAAYRGGGYKYDYWGQGTQVTVSS | high polyreactivity |
| QVQLVESGGGLVQAGGSLRLSCAASGSIFYLYAMGWYRQAPGKETEVVAAITSIGGSTYADSVKGRFTISRDNAKNTVYLQLNSLKPDDTAVYYCNTDVYPLTVQVQYYYWGQGTQVTVSS | low polyreactivity |
| QVQLVESGGGLVQAGGSLRLSCAASGRTFYFYVMGWYRQAPGKERELVARISWSGGSTYYADSVKGRFTISRDNAKNTVYLQMNSLKPEDTAVYYCARQYKYPSSGEYDSWGQGTQVTVSS | low polyreactivity |
| QVQLVESGGGLVQAGGSLRLSCAASGYIFHSYVMGWYRQAPGKERELVAAITSDDDSTFYADSVKGRFTISRDNAKNTVYLQMNSLKPEETGVYYCAADGYYQYDKDTYYSTSDYWGQGTQVTVSS | low polyreactivity |
| QFQLVESGGGLVQAGGSLRLSCAASGRIFFIYAMGWYRQAPGKERELVAGINRTGGSTNYADSVKGRFTISRDNAKNTVYLQMNSLKPEDTAVYYCAADIYDGGFDYWGQGTQVTVSS | low polyreactivity |
| QVQLVESGGGLVQAGGSLRLSCAASGSIFGVNDMGWYRQAPGKERELVAGISSSGGSTYDADSVMGRFTISRDNAKNTVYLQMNSLKPEDTAVYYCAARKLYRPRGRRVGYWGQGTQVTVSS | low polyreactivity |
| QVQLVESGGRLVQAGGSLRLSSAASGSTFSFYVMRWYRQAPGKERELVAAISWSSVGTYSADSVKGRFTISRDNAKNTVYLQMNSLKPEDTAVYYCAADSYRRVAKHGYWGQGTQVTVSS | high polyreactivity |
| QVQLVESGGRLVQAGGSLRLSCAASGRTFSTYDMGWSRQAPGKERELVAAITSTGDTPYYADSVKGRFTISRDTAKNTVYLQLNSLKPEDTAVYYCAAYASWHQWIYAFYGLDYWGQGTQVTVSS | low polyreactivity |

From the nanobody polyreactivity screen of Harvey et al. (2022)
